Source: the supplement of paper PMC10567573

B1: TSN (parent)
chain: FLAAEQDIREEIRKVVQSLEQTAR

Variants of: B1
Test: protein stability index of a GFP-peptide fusion (GPS, HEK-293T) (PSI 1-6); higher = more stable
Settings: c terminus: a fixed tail appended
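Note: lentivirally expressed fusions sorted by FACS into six bins by GFP to DsRed ratio, PSI derived from sequencing read proportions per bin multiplied by bin number.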

Point of comparison: FLAAEQDIREEIRKVVQSLEQTTR [A23T], protein stability index 1.76. Against it:
- FLAAEQDIREEIRKVVQCLEQTAR [S18C] — higher, 2.28
- FLAAEQDIREEIRKVVQSLEQKAR [T22K] — higher, 1.95
- FLAAEQDIREEIRKVVQSLEQEAR [T22E] — higher, 2.48
- FLAAEQDIREEIRKVVQSLEQMAR [T22M] — higher, 2.57
- FLAAEQDIREEIRKVVQSLEQFAR [T22F] — higher, 2.42
- FLAAEQDIREEIRKVVQSLEQPAR [T22P] — higher, 2.16
- FLAAEQDIREEIRKVVQSLEQRAR [T22R] — higher, 2.99
- FLAAEQDIREEIRKVVQSLEQAAR [T22A] — higher, 2.38
- FLAAEQDIREEIRKVVQSLEQCAR [T22C] — higher, 1.84
- FLAAEQDIREEIRKVVQSLEQHAR [T22H] — lower, 1.67
- FLAAEQDIREEIRKVVQSLEQQAR [T22Q] — higher, 2.1
- FLAAEQDIREEIRKVVQSLEQLAR [T22L] — higher, 3.07
- FLAAEQDIREEIRKVVQSLEQNAR [T22N] — higher, 2.36
- FLAAEQDIREEIRKVVQSLEQWAR [T22W] — higher, 2.32
- FLAAEQDIREEIRKVVQSLEQYAR [T22Y] — higher, 1.81
- FLAAEQDIREEIRKVVQSLEQDAR [T22D] — higher, 2.5
- FLAAEQDIREEIRKVVQSLEQGAR [T22G] — lower, 1.24
- FLAAEQDIREEIRKVVQSLEQIAR [T22I] — higher, 2.61
- FLAAEQDIREEIRKVVQSLEQVAR [T22V] — higher, 2.55
- FLAAEQDIREEIRKVVQSLEQSAR [T22S] — higher, 1.98
- FLAAEQDIREEIRKVIQSLEQTAR [V16I] — higher, 1.86
- FLAAEQDIREEIRKVKQSLEQTAR [V16K] — higher, 2.38
- FLAAEQDIREEIRKVGQSLEQTAR [V16G] — higher, 3.36
- FLAAEQDIREEIRKVFQSLEQTAR [V16F] — higher, 2.77
- FLAAEQDIREEIRKVTQSLEQTAR [V16T] — lower, 1.68
- FLAAEQDIREEIRKVNQSLEQTAR [V16N] — higher, 3.03
- FLAAEQDIREEIRKVSQSLEQTAR [V16S] — higher, 1.93
- FLAAEQDIREEIRKVLQSLEQTAR [V16L] — higher, 2.2
- FLAAEQDIREEIRKVMQSLEQTAR [V16M] — lower, 1.73
- FLAAEQDIREEIRKVEQSLEQTAR [V16E] — higher, 2.21
- FLAAEQDIREEIRKVDQSLEQTAR [V16D] — higher, 3.78
- FLAAEQDIREEIRKVRQSLEQTAR [V16R] — higher, 2.15
- FLAAEQDIREEIRKVHQSLEQTAR [V16H] — higher, 2.26
- FLAAEQDIREEIRKVPQSLEQTAR [V16P] — higher, 3.24
- FLAAEQDIREEIRKVWQSLEQTAR [V16W] — lower, 1.74
- FLAAEQDIREEIRKVQQSLEQTAR [V16Q] — higher, 2.35
- FLAAEQDIREEIRKVCQSLEQTAR [V16C] — higher, 2.13
- FLAAEQDIREEIRKVYQSLEQTAR [V16Y] — higher, 2.83
- FLAAEQDIREEIRKVAQSLEQTAR [V16A] — higher, 2.3
- FLAAEQDIREEIRKVVQSLCQTAR [E20C] — higher, 2.57
- FLAAEQDIREEIRKVVQSLMQTAR [E20M] — higher, 2.33
- FLAAEQDIREEIRKVVQSLDQTAR [E20D] — higher, 2.77
- FLAAEQDIREEIRKVVQSLSQTAR [E20S] — higher, 2.57
- FLAAEQDIREEIRKVVQSLFQTAR [E20F] — higher, 2.73
- FLAAEQDIREEIRKVVQSLVQTAR [E20V] — higher, 2.29
- FLAAEQDIREEIRKVVQSLAQTAR [E20A] — higher, 3.05
- FLAAEQDIREEIRKVVQSLNQTAR [E20N] — higher, 2.08
- FLAAEQDIREEIRKVVQSLWQTAR [E20W] — higher, 2.64
- FLAAEQDIREEIRKVVQSLRQTAR [E20R] — higher, 2.44
- FLAAEQDIREEIRKVVQSLHQTAR [E20H] — higher, 2.55
- FLAAEQDIREEIRKVVQSLLQTAR [E20L] — higher, 2.13
- FLAAEQDIREEIRKVVQSLQQTAR [E20Q] — higher, 2.35
- FLAAEQDIREEIRKVVQSLYQTAR [E20Y] — higher, 2.07
- FLAAEQDIREEIRKVVQSLKQTAR [E20K] — higher, 2.29
- FLAAEQDIREEIRKVVQSLTQTAR [E20T] — higher, 2.3
- FLAAEQDIREEIRKVVQSLGQTAR [E20G] — higher, 2.28
- FLAAEQDIREEIRKVVQSLPQTAR [E20P] — higher, 3.47
- FLAAEQDIREEIRKVVQSLIQTAR [E20I] — higher, 2.05
- FLAAEQDIREEIRHVVQSLEQTAR [K14H] — higher, 1.98
- FLAAEQDIREEIRTVVQSLEQTAR [K14T] — higher, 2.25
- FLAAEQDIREEIRGVVQSLEQTAR [K14G] — higher, 2.03
- FLAAEQDIREEIRSVVQSLEQTAR [K14S] — higher, 2.07
- FLAAEQDIREEIRAVVQSLEQTAR [K14A] — higher, 2.08
- FLAAEQDIREEIRIVVQSLEQTAR [K14I] — lower, 1.39
- FLAAEQDIREEIRWVVQSLEQTAR [K14W] — higher, 1.77
- FLAAEQDIREEIRNVVQSLEQTAR [K14N] — higher, 2.52
- FLAAEQDIREEIRQVVQSLEQTAR [K14Q] — higher, 2.05
- FLAAEQDIREEIRLVVQSLEQTAR [K14L] — higher, 2.13
- FLAAEQDIREEIRDVVQSLEQTAR [K14D] — higher, 3.41
- FLAAEQDIREEIRMVVQSLEQTAR [K14M] — higher, 2.24
- FLAAEQDIREEIRVVVQSLEQTAR [K14V] — higher, 1.83
- FLAAEQDIREEIRFVVQSLEQTAR [K14F] — lower, 1.48
- FLAAEQDIREEIRYVVQSLEQTAR [K14Y] — higher, 2.3
- FLAAEQDIREEIRPVVQSLEQTAR [K14P] — higher, 3.76
- FLAAEQDIREEIRCVVQSLEQTAR [K14C] — higher, 2.07
- FLAAEQDIREEIREVVQSLEQTAR [K14E] — higher, 2.36
- FLAAEQDIREEIRRVVQSLEQTAR [K14R] — higher, 3.3
- FLAAEQDIREEIRKVVQSLEQTER [A23E] — higher, 2.68
- FLAAEQDIREEIRKVVQSLEQTHR [A23H] — higher, 2.11
- FLAAEQDIREEIRKVVQSLEQTLR [A23L] — higher, 2.34
- FLAAEQDIREEIRKVVQSLEQTQR [A23Q] — higher, 1.96
- FLAAEQDIREEIRKVVQSLEQTFR [A23F] — higher, 2.19
- FLAAEQDIREEIRKVVQSLEQTKR [A23K] — lower, 1.75
- FLAAEQDIREEIRKVVQSLEQTPR [A23P] — higher, 2.15
- FLAAEQDIREEIRKVVQSLEQTCR [A23C] — higher, 1.99
- FLAAEQDIREEIRKVVQSLEQTSR [A23S] — higher, 1.8
- FLAAEQDIREEIRKVVQSLEQTRR [A23R] — higher, 1.87
- FLAAEQDIREEIRKVVQSLEQTVR [A23V] — higher, 2.13
- FLAAEQDIREEIRKVVQSLEQTGR [A23G] — higher, 2.21
- FLAAEQDIREEIRKVVQSLEQTIR [A23I] — higher, 2.52
- FLAAEQDIREEIRKVVQSLEQTNR [A23N] — higher, 1.8
- FLAAEQDIREEIRKVVQSLEQTDR [A23D] — lower, 1.57
- FLAAEQDIREEIRKVVQSLEQTMR [A23M] — higher, 1.87
